Legend:
cross-linking = target: the molecule itself; experiment: cross-linking
SEC-MALS = target: the molecule itself; experiment: SEC-MALS

B1: His6-tagged SYD-2LH1 (domain or fragment)
chain: not shown
stoichiometry N (cross-linking): 2

B2: MBP-LH1 fusion protein (domain or fragment)
chain: not shown
stoichiometry N (SEC-MALS): 2

From article PMC3500560 (The Journal of neuroscience : the official journal of the …, 2011)
